Experiments:
human CCR2B = target: T1, human CCR2B (Homo sapiens, UniProt P41597); assay: FLIPR calcium mobilization agonist assay in THP-1 cells; type: cell-based; conditions: endogenous human CCR2B expression
T1 construct: THP-1 cells, with their endogenous expression of the human receptor; endogenous in cells; host or cells: THP-1 (human monocyte cell line)
T1 sequence (P41597 1-360 isoform P41597-2): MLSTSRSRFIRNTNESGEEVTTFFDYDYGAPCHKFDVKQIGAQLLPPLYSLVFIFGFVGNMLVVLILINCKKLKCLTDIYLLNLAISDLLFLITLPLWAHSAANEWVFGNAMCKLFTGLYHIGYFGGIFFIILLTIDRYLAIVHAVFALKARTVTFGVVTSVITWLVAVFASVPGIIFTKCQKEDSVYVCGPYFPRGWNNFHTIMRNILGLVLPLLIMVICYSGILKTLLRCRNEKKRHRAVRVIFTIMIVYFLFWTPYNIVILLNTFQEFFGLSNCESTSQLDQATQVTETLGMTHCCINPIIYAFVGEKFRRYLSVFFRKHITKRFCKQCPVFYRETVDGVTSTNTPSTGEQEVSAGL

chimeric dog-human CCR2B = target: T2, chimeric dog-human CCR2B (Homo sapiens, UniProt P41597, A111V/A286I/C181V/C75S/D36S/E105G/E278K/F108L/F271S/G175R/G191S/G197A/G224A/G273N/G41A/I128T/I163V/I208V/I217V/I263L/I300V/I40V/I93L/K180T/K183I/K38R/L115S/L166M/L274V/L76M/L95I/L97F/N110E/N199K/N207S/N266S/P195Q/Q43G/R196Q/R240K/R243K/S101Y/T247V/T257A/T287M/V107L/V162G/V173L/V187F/V189S/V244L/Y188S/Y193Q/Y259N); assay: FLIPR calcium mobilization agonist assay in CHO-K1 cells expressing chimeric dog-human CCR2B; type: cell-based
T2 construct: expressed in transfected cells
T2 sequence (P41597 1-360 isoform P41597-2 D36S/K38R/I40V/G41A/Q43G/C75S/L76M/I93L/L95I/L97F/S101Y/E105G/V107L/F108L/N110E/A111V/L115S/I128T/V162G/I163V/L166M/V173L/G175R/K180T/C181V/K183I/V187F/Y188S/V189S/G191S/Y193Q/P195Q/R196Q/G197A/N199K/N207S/I208V/I217V/G224A/R240K/R243K/V244L/T247V/T257A/Y259N/I263L/N266S/F271S/G273N/L274V/E278K/A286I/T287M/I300V): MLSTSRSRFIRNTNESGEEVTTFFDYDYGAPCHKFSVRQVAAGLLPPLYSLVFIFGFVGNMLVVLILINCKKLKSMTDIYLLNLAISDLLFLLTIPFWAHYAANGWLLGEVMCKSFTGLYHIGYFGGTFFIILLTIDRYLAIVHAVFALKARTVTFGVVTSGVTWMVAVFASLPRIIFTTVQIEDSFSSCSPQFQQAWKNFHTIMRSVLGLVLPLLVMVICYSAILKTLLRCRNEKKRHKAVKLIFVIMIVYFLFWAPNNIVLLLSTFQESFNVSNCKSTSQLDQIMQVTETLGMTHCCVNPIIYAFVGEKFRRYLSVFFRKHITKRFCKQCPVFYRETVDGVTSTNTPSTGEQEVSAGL
Method: The chimeric CCR2B/cDNA3.1 plasmid of Example 1 was expressed in CHO-K1 cells using the Lipofectamine-Plus reagent (Invitrogen, Carlsbad, Calif., USA) according to manufacturer's instructions, and the resulting stable cell lines following selection with the antibiotic G418 were assayed for MCP-1-dependent calcium mobilization in a FLIPR assay. Cells were plated at 15,000 per well in a 384-well assay plate one day prior to assay. Calcium-3 indicator dye (Molecular Devices, Sunnyvale, Calif., USA) was added 1 hr prior to assay, and cells were incubated at 37° C. For the agonist assay, human MCP-1 was added to cells, followed immediately by reading of calcium mobilization on the FLIPR. RFU counts (Max-Min) were recorded for each MCP-1 concentration assayed. For the antagonist assay, the antagonist was added to the cells 20 min prior to addition of MCP-1. The MCP-1 activation of calcium mobilization in CCR2B/CHOK1 cells of Example 2 was extended to include examination of the effects of mouse and canine MCP-1 (FIG. 4A). […] The qualitative similarity of the results in the CHOK1 cells expressing the chimeric receptor and THP-1 cells, with their endogenous expression of the human receptor, lends evidence that the chimeric receptor faithfully recapitulates the activation pharmacology of the native receptor.

With “cMCP-1: canine monocyte chemoattractant protein-1 (chemokine)” the EC50 (human CCR2B) was 53 nM and the EC50 (chimeric dog-human CCR2B) was 138 nM.

In the case of “mouse MCP: mouse monocyte chemoattractant protein-1 (chemokine)”, the EC50 (human CCR2B) is reported as 30 nM and the EC50 (chimeric dog-human CCR2B) is reported as 38 nM.

— patent US7592156B2, “Synthetic dog/human chimeric C-C chemokine receptor 2B” (Wyeth, priority 2006, dated 2009)
